These results are taken from PMC9195068, “The action of Con-ikot-ikot toxin on single AMPA-type glutamate receptors” (The Journal of General Physiology, 2022).

This data set deals with the molecule itself. In words: non-reducing SDS-PAGE.

By stoichiometry N is commonly meant a count of units in the complex or per binding partner.

B1: Con-ikot-ikot toxin (natural protein)
chain: SGPADCCRMKECCTDRVNECLQRYSGREDKFVSFCYQEATVTCGSFNEIVGCCYGYQMCMIRVVKPNSLSGAHEACKTVSCGNPCA
notes: also called CII; CII toxin
With B1, the “stoichiometry N” value came out at 2.
